Test results as given in patent US7850981B2, “Immuno-adjuvant PDT treatment of metastatic tumors” (QLT, Inc., priority 1999, dated 2010).
Read-outs that look alike come from different tables or passages of the source.

Legend:
[1] = tested on: DC; assay: Preliminary experiments: daily injection of FLT3 L into mice, numbers of DC; format: in vivo; details: daily injection of 10 μg into mice for 10 days
[2] = tested on: DC; details: after multiple injections, cited from earlier work

B1: FLT3-ligand: cytokine factor promoting growth of hematopoietic progenitors; increases dendritic cell numbers (protein, UniProt P49771 27-235, looked up)
Fms-related tyrosine kinase 3 …: TQDCSFQHSPISSDFAVKIRELSDYLLQDYPVTVASNLQDEELCGGLWRLVLAQRWMERLKTVAGSKMQGLLERVNTEIHFVTKCAFQPPPSCLRFVQTNISRLLQETSEQLVALKPWITRQNFSRCLELQCQPDSSTLPPPWSPRPLEATAPTAPQPPLLLLLLLPVGLLLLAAAWCLHWQRTRRRTPRPGEQVPPVPSPQDLLLVEH
numbers of DC [1]: dramatically increase | increase in DC numbers ([2]; blood): ~6 fold | increase in DC numbers ([2]; peripheral lymph nodes): ~4 fold | increase in DC numbers ([2]; spleen): approximately 17 fold
